In the supplement of paper PMC12042874 one finds amyloid nucleation score data, which are given here for 85 substances.

± gives the uncertainty stated by the source.

One data set is described as follows: amyloid nucleation score (Sup35N fusion, yeast selection) (log enrichment); library NNK2; higher = more nucleation; inactive = no reads after selection. The procedure, abridged: (§1)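 Libraries of peptides of 20 random codons fused to Sup35N were expressed in psi-negative yeast and induced 24 hours with 100 μM copper sulfate. Selection was 7 days at 30°C on medium lacking adenine and uracil, and plasmid inserts were Illumina-sequenced before and after selection. Nucleation score is the DiMSum log enrichment of output over input reads, centred on the mode score of non-aggregating sequences, and sequences with under 100 input reads were left out.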
Substance DVGSNKGAIIGLMVGGVVIA had an amyloid nucleation score of 2.4 ± 0.19.

The nature of the next data set: amyloid nucleation score (Sup35N fusion, yeast selection) (log enrichment); library NNK1; higher = more nucleation; inactive = no reads after selection. The procedure, abridged: as §1
The substance DVGSNKGAIIGLMVGGVVIA registered an amyloid nucleation score of 3.61 ± 0.19.

For the substance GVLLV, the amyloid nucleation score turned out to be 0.129 ± 0.93.

With ILGTIYDIMQNGDIHRFLAY, the amyloid nucleation score is -0.834 ± 1.2.

Regarding ASAVIWGERAKLRKYLIPTR, the amyloid nucleation score stood at 0.94 ± 0.7.

As to CGRKGEHIFYTTDNEYLNYV, the amyloid nucleation score was determined as 0.211 ± 0.36.

As for WFARNTLLEWEN, the amyloid nucleation score is -1.57 ± 2.1.

As to SPPSLRNLNYIFAY, the amyloid nucleation score was -0.948 ± 2.4.

In turn, ILSEPNELTGACLAS showed an amyloid nucleation score of 0.29 ± 0.78.

Turning to GRDRSWDIRWLYTLTEPTWH, the amyloid nucleation score was -1.62 ± 2.7.

On to MYLFICVGSMVNQDVNEMMR, for which the amyloid nucleation score came to 3.84 ± 0.084.

NSGEEYVRVEGNCAFKSLSC registered an amyloid nucleation score of 0.416 ± 0.15.

SCGTYFLFICHKSLYWHVHI yielded an amyloid nucleation score of -0.594 ± 0.9.

For the substance LSRNVVGAFGSGHWRADRAA, the amyloid nucleation score turned out to be 0.256 ± 0.64.

Take KSTLVKHLNQYYRLVLMGPL: the amyloid nucleation score was 1.1 ± 0.54.

For NLCVVREWYSKSCWPRFLRV, the amyloid nucleation score is -0.274 ± 0.56.

For GLSQKVGKPAAALLRTMVSD, the amyloid nucleation score is -0.309 ± 0.27.

With GRVFSFMIGFFVALTERTRA, the amyloid nucleation score is -0.037 ± 1.7.

As to SHFGNPLKIPVFNRWTQHKA, the amyloid nucleation score is -0.263 ± 0.49.

For the substance IWDCLFPSSSAMSYPVDPKA, the amyloid nucleation score amounted to 0.547 ± 0.42.

Substance MYISRFRF displayed an amyloid nucleation score of 3.42 ± 0.15.

Regarding TDCQRYI, the amyloid nucleation score was 1.6 ± 0.54.

Consider ACWLAKHKEYRLSGHVQEFD, for which the amyloid nucleation score was determined as 0.035 ± 0.52.

On to QNHSGPGLMIRILANAQKWF, for which the amyloid nucleation score is -0.93 ± 2.4.

SVYWKYLYP displayed an amyloid nucleation score of 1.98 ± 0.098.

LISHPFDPLIKVGDIQMYSF showed an amyloid nucleation score of 0.012 ± 0.61.

For the substance FIDRIYSIVYGVGGCMMSLI, the amyloid nucleation score was found to be 0.008 ± 0.47.

As to LAWMWYQGVSLRNKGGGMFY, the amyloid nucleation score was -0.659 ± 1.

Substance VYYYVLSLV returned an amyloid nucleation score of 0.207 ± 1.4.

Turning to LCWFWGYVISYREMIYAESV, the amyloid nucleation score entry is “inactive”.

Turning to RLLCCFCTWTLQMFCYSGCC, the amyloid nucleation score worked out at 5.981 ± 0.053.

In turn, LVLFVTFGWCIDELRWMKRR showed an amyloid nucleation score of -0.51 ± 2.1.

VRVNRLSFLNNALLFWLFAK gave an amyloid nucleation score of 2.3 ± 0.1.

CIGRCMWI displayed an amyloid nucleation score of 1.81 ± 0.61.

On to KTWLIG, for which the amyloid nucleation score was 0.109 ± 0.54.

Regarding VSYKTGIWGVSCDIDGVY, the amyloid nucleation score is -0.182 ± 0.24.

DDRLLCI returned an amyloid nucleation score of -1.85 ± 2.1.

Substance HWRTCCWQEMLLMSALSRQG displayed an amyloid nucleation score of -0.252 ± 0.46.

As to IARYSTVYPVPHNCRNHKHS, the amyloid nucleation score came to 0.15 ± 1.1.

With CILLVFEDMWVSIV, the amyloid nucleation score is -0.53 ± 0.36.

In turn, SACNLPACRSNKLAGRGRVM gave an amyloid nucleation score of 0.408 ± 0.42.

The substance MGNLATRWFQR yielded an amyloid nucleation score of -0.037 ± 1.4.

Substance KQCGVKWFMAG came in with an amyloid nucleation score of 0.437 ± 1.4.

Regarding MATSPFGERVPFIYLDHFCY, the amyloid nucleation score came out at 0.009 ± 0.42.

With EFYVTCFCVRMKTKAYAPLV, the amyloid nucleation score is 0.106 ± 0.31.

LFVVFHALTIFYP yielded an amyloid nucleation score of -0.437 ± 1.2.

With EHLVHLYKFSSAFERVGW, the amyloid nucleation score is -0.352 ± 0.7.

In the case of YGGNL, the amyloid nucleation score worked out at 0.169 ± 0.52.

As for RLCPENLRTNFKCVLNFMVT, the amyloid nucleation score amounted to 4.81 ± 0.12.

With FAWLGCFSWTLNFWDKYMRG, the amyloid nucleation score is -0.856 ± 1.4.

For the substance LGISPVSTGKKVNEDVYSGF, the amyloid nucleation score was found to be 0.618 ± 0.79.

Take ELNDVMRSGSKG: the amyloid nucleation score is 0.992 ± 1.

QVYEDGRAICHLTLGRDCNL showed an amyloid nucleation score of 2.22 ± 0.47.

LRYLGMMVRREKIEVINLNY registered an amyloid nucleation score of 0.329 ± 1.4.

YYCLKPRGQSIGYGGNCLKA had an amyloid nucleation score of 0.134 ± 0.83.

As for WYIVGSFTGITLVVNLALNL, the amyloid nucleation score result was “inactive”.

With GGLGTPFFHAPSHMWVKW, the amyloid nucleation score was -0.551 ± 0.55.

Turning to TSLWCQLRKFNYI, the amyloid nucleation score is -0.181 ± 0.26.

Substance TSSPSVTYLLRYRLQWTLHN returned an amyloid nucleation score of 0.035 ± 0.76.

In turn, WEKNFKIGESRCSV showed an amyloid nucleation score of -0.554 ± 1.1.

YYSSHYVDIAHSKE came in with an amyloid nucleation score of 0.334 ± 0.32.

In the case of YGEHMLVDRCMRWVSSFYRG, the amyloid nucleation score was 1.62 ± 0.3.

SLLNRVGLWRRSSLCLMTGC displayed an amyloid nucleation score of 0.538 ± 0.26.

MELTIAKSEMHVFKGGCVQL had an amyloid nucleation score of -0.45 ± 0.57.

Consider ELVSS, for which the amyloid nucleation score is -0.455 ± 0.26.

Take ARMSNMNPLFWLP: the amyloid nucleation score is -0.04 ± 0.35.

Regarding SFGNVILSGIIRTTVLDRGV, the amyloid nucleation score was -0.381 ± 0.74.

On to IRRATF, for which the amyloid nucleation score was 0.421 ± 0.84.

On to RRGAKRSLWLIRNLWWDKSK, for which the amyloid nucleation score result was “inactive”.

RISLRYGQRC: the amyloid nucleation score worked out at 0.356 ± 0.28.

LILRVSFN showed an amyloid nucleation score of 2.28 ± 0.16.

Consider VEAPGLSCAIRGWNTVVIRR, for which the amyloid nucleation score came to 0.387 ± 0.49.

In the case of RNIWNLVLDKNAHMNCFMTH, the amyloid nucleation score is 0.087 ± 0.46.

As for SIPIVL, the amyloid nucleation score was determined as 0.267 ± 0.35.

On to HTGIIVKEVAQL, for which the amyloid nucleation score was -0.507 ± 1.9.

Regarding RDIYRVYNV, the amyloid nucleation score was -1.05 ± 0.72.

As to YNFRTVNFHIGTPSICFGHD, the amyloid nucleation score result is “inactive”.

LLVVVTLAI displayed an amyloid nucleation score of 0.89 ± 0.51.

In turn, ATCLLAFMNFVSILERRSES yielded an amyloid nucleation score of 1.86 ± 0.21.

LLKVQGF gave an amyloid nucleation score of 1.13 ± 0.51.

For the substance CSWAASY, the amyloid nucleation score is -0.689 ± 1.9.

FASMIFSRASSSSDNIFFRN registered an amyloid nucleation score of 0.361 ± 0.22.

NEECVPHV gave an amyloid nucleation score of 0.223 ± 0.34.

HTNVWGGAHYTSIKAN had an amyloid nucleation score of 0.581 ± 0.31.

For the substance SLLSFCQSSRVTESSMAYCT, the amyloid nucleation score entry was “inactive”.

On to SVWDGFSLRYPSLVYLRCGS, for which the amyloid nucleation score is -0.634 ± 0.71.

A short description of a further data set: amyloid nucleation score (Sup35N fusion, yeast selection) (log enrichment); library NNK3; higher = more nucleation; inactive = no reads after selection. The procedure, abridged:
as §1
For GVLLV, the amyloid nucleation score result was “inactive”.
